Test results: the supplement of paper PMC10567573

B1: SCNN1D (parent)
chain: RRPSPVLRHLELLDEFARENIDSL

Variants of: B1
Experiment: protein stability index of a GFP-peptide fusion (GPS, HEK-293T) (PSI 1-6); higher = more stable
Details: c terminus: a fixed tail appended
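Note: lentivirally expressed fusions sorted by FACS into six bins by GFP to DsRed ratio, PSI derived from sequencing read proportions per bin multiplied by bin number.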

In order of rising protein stability index:
1. RRPSPVLRWLELLDEFARENIDSL [H9W]  1.69
2. RRPSPVLRFLELLDEFARENIDSL [H9F]  1.74
3. RRPSPWLRHLELLDEFARENIDSL [V6W]  1.79
4. RRPSPVLRYLELLDEFARENIDSL [H9Y]  1.83
5. RRPSPVLRMLELLDEFARENIDSL [H9M]  1.89
6. RRPSPLLRHLELLDEFARENIDSL [V6L]  1.91
7. RRPSPILRHLELLDEFARENIDSL [V6I]  1.95
8. RRPSPYLRHLELLDEFARENIDSL [V6Y]  1.96
9. RRPSPVLCHLELLDEFARENIDSL [R8C]  2.09
10. RRPSPVLRHIELLDEFARENIDSL [L10I]  2.1
11. RRPSPVLRLLELLDEFARENIDSL [H9L]  2.17
12. RRPSPVLRILELLDEFARENIDSL [H9I]  2.24
13. RRPSPFLRHLELLDEFARENIDSL [V6F]  2.28
14. RRPSPMLRHLELLDEFARENIDSL [V6M]  2.31
15. RRPSPVLRHMELLDEFARENIDSL [L10M]  2.34
16. RRPSPVLIHLELLDEFARENIDSL [R8I]  2.37
17. RRPSPVLRVLELLDEFARENIDSL [H9V]  2.4
18. RRPSPRLRHLELLDEFARENIDSL [V6R]  2.43
19. RRPSPVLRCLELLDEFARENIDSL [H9C]  2.48
20. RRPSPVLLHLELLDEFARENIDSL [R8L]  2.49
21. RRPSPVLFHLELLDEFARENIDSL [R8F]  2.61
22. RRPSPKLRHLELLDEFARENIDSL [V6K]  2.63
23. RRPSPVLRALELLDEFARENIDSL [H9A]  2.65
24. RRPSPVLWHLELLDEFARENIDSL [R8W]  2.7
25. RRPSPCLRHLELLDEFARENIDSL [V6C]  2.72
26. RRPSPQLRHLELLDEFARENIDSL [V6Q]  2.82
27. RRPSPALRHLELLDEFARENIDSL [V6A]  2.86
28. RRPSPVLYHLELLDEFARENIDSL [R8Y]  2.87
29. RRPSPTLRHLELLDEFARENIDSL [V6T]  2.98
30. RRPSPVLVHLELLDEFARENIDSL [R8V]  2.99
31. RRPSPVLRHYELLDEFARENIDSL [L10Y]  3
32. RRPSPVLRHLELFDEFARENIDSL [L13F]  3.14
33. RRPSPVLRHLELWDEFARENIDSL [L13W]  3.19
34. RRPSPVLRHLELYDEFARENIDSL [L13Y]  3.19
35. RRPSPVLRHWELLDEFARENIDSL [L10W]  3.23
36. RRPSPVLRHCELLDEFARENIDSL [L10C]  3.24
37. RRPSPVLRKLELLDEFARENIDSL [H9K]  3.28
38. RRPSPVLAHLELLDEFARENIDSL [R8A]  3.33
39. RRPSPELRHLELLDEFARENIDSL [V6E]  3.37
40. RRPSPVLRHVELLDEFARENIDSL [L10V]  3.41
41. RRPSPVLMHLELLDEFARENIDSL [R8M]  3.43
42. RRPSPSLRHLELLDEFARENIDSL [V6S]  3.48
43. RRPSPVLKHLELLDEFARENIDSL [R8K]  3.5
44. RRPSPVLRHPELLDEFARENIDSL [L10P]  3.56
45. RRPSPVLRHLELCDEFARENIDSL [L13C]  3.57
46. RRPSPVLTHLELLDEFARENIDSL [R8T]  3.59
47. RRPSPVLRHLELMDEFARENIDSL [L13M]  3.59
48. RRPSPVLRHTELLDEFARENIDSL [L10T]  3.59
49. RRPSPVLRHLELRDEFARENIDSL [L13R]  3.6
50. RRPSPVLRHLELVDEFARENIDSL [L13V]  3.6
51. RRPSPVLHHLELLDEFARENIDSL [R8H]  3.61
52. RRPSPVLRSLELLDEFARENIDSL [H9S]  3.68
53. RRPSPVLRHLELIDEFARENIDSL [L13I]  3.73
54. RRPSPVLRGLELLDEFARENIDSL [H9G]  3.76
55. RRPSPVLSHLELLDEFARENIDSL [R8S]  3.77
56. RRPSPNLRHLELLDEFARENIDSL [V6N]  3.77
57. RRPSPVLRHLELQDEFARENIDSL [L13Q]  3.78
58. RRPSPHLRHLELLDEFARENIDSL [V6H]  3.79
59. RRPSPVLRQLELLDEFARENIDSL [H9Q]  3.79
60. RRPSPVLRTLELLDEFARENIDSL [H9T]  3.83
61. RRPSPVLRHAELLDEFARENIDSL [L10A]  3.84
62. RRPSPVLRHQELLDEFARENIDSL [L10Q]  3.84
63. RRPSPVLRHLELKDEFARENIDSL [L13K]  3.9
64. RRPSPVLRHFELLDEFARENIDSL [L10F]  3.9
65. RRPSPVLRRLELLDEFARENIDSL [H9R]  3.92
66. RRPSPVLRHGELLDEFARENIDSL [L10G]  3.95
67. RRPSPVLRPLELLDEFARENIDSL [H9P]  3.95
68. RRPSPGLRHLELLDEFARENIDSL [V6G]  3.96
69. RRPSPVLRHLELADEFARENIDSL [L13A]  3.98
70. RRPSPVLRHHELLDEFARENIDSL [L10H]  3.98
71. RRPSPVLRELELLDEFARENIDSL [H9E]  3.99
72. RRPSPVLRDLELLDEFARENIDSL [H9D]  3.99
73. RRPSPVLQHLELLDEFARENIDSL [R8Q]  4.09
74. RRPSPDLRHLELLDEFARENIDSL [V6D]  4.09
75. RRPSPVLRNLELLDEFARENIDSL [H9N]  4.09
76. RRPSPVLRHLELTDEFARENIDSL [L13T]  4.13
77. RRPSPVLRHLELNDEFARENIDSL [L13N]  4.16
78. RRPSPVLRHSELLDEFARENIDSL [L10S]  4.16
79. RRPSPVLPHLELLDEFARENIDSL [R8P]  4.18
80. RRPSPVLRHLELPDEFARENIDSL [L13P]  4.21
81. RRPSPPLRHLELLDEFARENIDSL [V6P]  4.22
82. RRPSPVLRHLELGDEFARENIDSL [L13G]  4.23
83. RRPSPVLRHNELLDEFARENIDSL [L10N]  4.23
84. RRPSPVLRHLELSDEFARENIDSL [L13S]  4.26
85. RRPSPVLRHLELHDEFARENIDSL [L13H]  4.31
86. RRPSPVLRHKELLDEFARENIDSL [L10K]  4.33
87. RRPSPVLNHLELLDEFARENIDSL [R8N]  4.34
88. RRPSPVLEHLELLDEFARENIDSL [R8E]  4.4
89. RRPSPVLRHDELLDEFARENIDSL [L10D]  4.42
90. RRPSPVLRHRELLDEFARENIDSL [L10R]  4.46
91. RRPSPVLRHLELEDEFARENIDSL [L13E]  4.48
92. RRPSPVLRHEELLDEFARENIDSL [L10E]  4.49
93. RRPSPVLRHLELDDEFARENIDSL [L13D]  4.57
94. RRPSPVLDHLELLDEFARENIDSL [R8D]  4.71
